{
  "source": "patent US20230242902A1",
  "about": "“A HIGHLY ERROR-PRONE […] R[…] FOR TARGETED CONTINUOUS EVOLUTION IN VIVO” (The Regents of the University of California, priority 2017, published 2023)",
  "molecules": {"B1": {"name": "pol3-01: proofreading deficient pol3-01 allele encodes POL3 (D321A, E323A) (protein, UniProt P15436 1-1097, looked up, variant D321A E323A)", "DNA polymerase delta …": "MSEKRSLPMVDVKIDDEDTPQLEKKIKRQSIDHGVGSEPVSTIEIIPSDSFRKYNSQGFKAKDTDLMGTQLESTFEQELSQMEHDMADQEEHDLSSFERKKLPTDFDPSLYDISFQQIDAEQSVLNGIKDENTSTVVRFFGVTSEGHSVLCNVTGFKNYLYVPAPNSSDANDQEQINKFVHYLNETFDHAIDSIEVVSKQSIWGYSGDTKLPFWKIYVTYPHMVNKLRTAFERGHLSFNSWFSNGTTTYDNIAYTLRLMVDCGIVGMSWITLPKGKYSMIEPNNRVSSCQLEVSINYRNLIAHPAEGDWSHTAPLRIMSFAIACAGRIGVFPEPEYDPVIQIANVVSIAGAKKPFIRNVFTLNTCSPITGSMIFSHATEEEMLSNWRNFIIKVDPDVIIGYNTTNFDIPYLLNRAKALKVNDFPYFGRLKTVKQEIKESVFSSKAYGTRETKNVNIDGRLQLDLLQFIQREYKLRSYTLNAVSAHFLGEQKEDVHYSIISDLQNGDSETRRRLAVYCLKDAYLPLRLMEKLMALVNYTEMARVTGVPFSYLLARGQQIKVVSQLFRKCLEIDTVIPNMQSQASDDQYEGATVIEPIRGYYDVPIATLDFNSLYPSIMMAHNLCYTTLCNKATVERLNLKIDEDYVITPNGDYFVTTKRRRGILPIILDELISARKRAKKDLRDEKDPFKRDVLNGRQLALKISANSVYGFTGATVGKLPCLAISSSVTAYGRTMILKTKTAVQEKYCIKNGYKHDAVVVYGDTDSVMVKFGTTDLKEAMDLGTEAAKYVSTLFKHPINLEFEKAYFPYLLINKKRYAGLFWTNPDKFDKLDQKGLASVRRDSCSLVSIVMNKVLKKILIERNVDGALAFVRETINDILHNRVDISKLIISKTLAPNYTNPQPHAVLAERMKRREGVGPNVGDRVDYVIIGGNDKLYNRAEDPLFVLENNIQVDSRYYLTNQLQNPIISIVAPIIGDKQANGMFVVKSIKINTGSQKGGLMSFIKKVEACKSCKGPLRKGEGPLCSNCLARSGELYIKALYDVRDLEEKYSRLWTQCQRCAGNLHSEVLCSNKNCDIFYMRVKVKKELQEKVEQLSKW"}},
  "test_system": "genomic CAN1 gene",
  "test": "Fluctuation tests of the genomic CAN1 gene (POL3 mutator strains)",
  "assay_type": "cell-based, S. cerevisiae",
  "details": "genomic mutation rate",
  "procedure": "To construct POL3 mutator strains, plasmids were transformed into AH22 encoding wild-type POL3 on a URA3 plasmid or Δmsh6 AH22 encoding wild-type POL3 on a URA3 plasmid. Transformants were expanded in selective SC medium and spot plated on selective SC medium or selective SC medium supplemented with 5-FOA (1 g/L) for plasmid shuffle of the plasmid encoding wild-type POL3 via URA3 counter-selection (Boeke et al., 1984).\nFluctuation tests of the genomic CAN1 gene were performed to determine genomic per-base substitution rates. To minimize propagation of POL3 mutator strains, fluctuation tests were performed directly on colonies from plasmid shuffle plates. For each strain, 48 colonies from plasmid shuffle plates were individually scraped and resuspended in 120 μL 0.9% NaCl. 10 μL from each resuspension was diluted and subject to an event counts measurement via flow cytometry. This was done to identify colonies of similar cell count, because fluctuation tests are only appropriate when final population sizes for all replicates are similar. 24 resuspensions with similar event counts were used for fluctuation tests. […] Colonies were counted from titer plates after 2-4 days and from spot plates after 3-6 days. […]\nFluctuation data were analyzed as described above for URA3 fluctuation data, but with mutation frequency parameters for CAN1 (Lang et al., 2008). […]",
  "data": [
    {"molecule": "B1", "values": [
      {"measurement": "mutational increase", "value": 58, "unit": "fold"}
    ]}
  ]
}
